Test results from patent US7022313B2, “Hydrogel particle formulation” (PowderJect Research Ltd., priority 1999, dated 2006).

Experiment: LDH specific activity after lyophilization (colorimetric endpoint assay)
Type: biochemical
Description: Lactate dehydrogenase (LDH) was obtained from Sigma Chemicals (L1254; Lot 96H9568). Bio-Gel A15M was obtained from Bio-Rad (Cat. No. 151-1050) as a powder having a MMAD of 20-150 μm. LDH activity was measured using an endpoint, colorimetric assay (Sigma No. 500). All other reagents were obtained from Fisher Scientific and were ACS-grade or better.
The Bio-Gel A15M resin was washed with water to remove preservative and then poured into a disposable 1×10 cm column to a final column volume of approximately 5 mL. The column was equilibrated with 5 mL sodium citrate, pH 6 containing 5% (w/v) mannitol. LDH was dissolved in the same buffer at 2 mg/mL final concentration. A 5 mL sample of this solution was loaded to the column and allowed to fully penetrate.
The resin was emptied from the column and lyophilized. After lyophilization the resin was re-suspended in water and poured back into the column. The column was then eluted with a 5 mL portion of the buffer. […]
The protein concentration of each solution was determined by absorbance at 280 nm using a Hewlett-Packard UV-VIS Spectrophotometer. […] The absorbance of the color formed is inversely proportional to the LDH activity. LDH specific activity was calculated by dividing the […].

Substance: Lactate dehydrogenase [LDH]
- specific activity, % of the starting material (LDH loaded on agarose beads (Bio-Gel A15M), lyophilized, eluted, preliminary): about 40%
- specific activity, % of the starting material (LDH recovered after lyophilization from solution): 98%
